Key:
[1] = target: Delta RBD+E406D (SARS-CoV-2) (UniProt P0DTC2)
[2] = target: Delta RBD+L455S (SARS-CoV-2) (UniProt P0DTC2)
[3] = target: Delta RBD+E406Q (SARS-CoV-2) (UniProt P0DTC2)
[4] = target: Delta+Y453F Spike on pseudotyped lentivirus (SARS-CoV-2) (UniProt P0DTC2)
[5] = target: Delta+L455F Spike on pseudotyped lentivirus (SARS-CoV-2) (UniProt P0DTC2)
[6] = target: Delta RBD+L455S (SARS-CoV-2) (UniProt P0DTC2); remark: listed apart in the source

## casirivimab (REGN10933) (antibody)
[1]
  fold reduction in pseudoviral neutralisation titre: 2 fold
[2]
  fold reduction in pseudoviral neutralisation titre: 65 fold
[3]
  fold reduction in pseudoviral neutralisation titre: 12 fold
[4]
  fold reduction in pseudoviral neutralization titre against wild-type Delta: 16 fold
[5]
  fold reduction in pseudoviral neutralization titre against wild-type Delta: 17 fold
[6]
  fold reduction in pseudoviral neutralization titre against wild-type Delta: 155 fold

Source: article doi:10.1101/2022.07.14.500063
